B1: naïve EcHsp60^ΔC (C-terminal GGM repeats truncated, Δ527–552) (domain or fragment)
chain: MFRLPTVMKQVRPVCRALAPHLTRAYAKDVKFGADARALMLQGVDLLADAVAVTMGPKGRTVIIEQSWGSPKVTKDGVTVAKSIDLKDKYKNIGAKLVQDVANNTNEEAGDGTTTATVLARAIAKEGFDTISKGANPVEIRRGVMMAVETVIKELKNLSKPVTTPEEIAQVATISANGDVEIGNIISNAMKKVGRKGVITVKDGKTLHDELEIIEGMKFDRGYISPYFINTAKGQKCEFQDAYLLLSEKKISSVQSIVPALEIANQHRKPLVIVAEDVDGEALSTLVLNRLKVGLQVVAVKAPGFGDNRKNQLRDMAVATGGTVFGDEAVGLALEDIQAHDFGKIGEVQITKDDTLLLKGGGSPAEVEKRAAEIVEQLENTTSDYEKEKLNERLAKLSDGVAVLKVGGTSDVEVNEKKDRVTDALNATRAAVEEGIVPGGGCALLRCIPSLDAIQTANADQKIGVEIIRRALRIPAMTIAKNAGVEGSLVVEKILQGSAELGYDAMQGEYVNMVEKGIIDPTKVVRTALLDAAGVASLLSTAEAVVTEIPKE
B2: naïve Epinephelus coioides mtHsp60 (EcHsp60), with the mitochondrial importing signal (natural protein)
chain: MFRLPTVMKQVRPVCRALAPHLTRAYAKDVKFGADARALMLQGVDLLADAVAVTMGPKGRTVIIEQSWGSPKVTKDGVTVAKSIDLKDKYKNIGAKLVQDVANNTNEEAGDGTTTATVLARAIAKEGFDTISKGANPVEIRRGVMMAVETVIKELKNLSKPVTTPEEIAQVATISANGDVEIGNIISNAMKKVGRKGVITVKDGKTLHDELEIIEGMKFDRGYISPYFINTAKGQKCEFQDAYLLLSEKKISSVQSIVPALEIANQHRKPLVIVAEDVDGEALSTLVLNRLKVGLQVVAVKAPGFGDNRKNQLRDMAVATGGTVFGDEAVGLALEDIQAHDFGKIGEVQITKDDTLLLKGGGSPAEVEKRAAEIVEQLENTTSDYEKEKLNERLAKLSDGVAVLKVGGTSDVEVNEKKDRVTDALNATRAAVEEGIVPGGGCALLRCIPSLDAIQTANADQKIGVEIIRRALRIPAMTIAKNAGVEGSLVVEKILQGSAELGYDAMQGEYVNMVEKGIIDPTKVVRTALLDAAGVASLLSTAEAVVTEIPKEEKEMPGGMGGMGGMGGMGGMGGGMGF

How the values were obtained:
[1] = molecular target: the molecule itself; assay: SEC; protein homogenised and purified at 4°C (LT); Superdex S200pg 16/600, 25 mM Tris-HCl pH 7.6, 150 mM NaCl, 1 ml/min
[2] = molecular target: the molecule itself; assay: SEC; protein homogenised and purified at room temperature (RT, 25°C); Superdex S200pg 16/600, 25 mM Tris-HCl pH 7.6, 150 mM NaCl, 1 ml/min

Protein | stoichiometry N [1] | stoichiometry N [2]
B1 | 7 | 
B2 | 2 | 7

Reference: article PMC10053435, “Crystal structures of dimeric and heptameric mtHsp60 reveal the mechanism of chaperonin inactivation” (Life Science Alliance, 2023)
